Values of other authors in publication PMC12404997.

Target: RhoA (Homo sapiens) (UniProt P61586)
Chain of UniProt P61586 (P61586 1-190): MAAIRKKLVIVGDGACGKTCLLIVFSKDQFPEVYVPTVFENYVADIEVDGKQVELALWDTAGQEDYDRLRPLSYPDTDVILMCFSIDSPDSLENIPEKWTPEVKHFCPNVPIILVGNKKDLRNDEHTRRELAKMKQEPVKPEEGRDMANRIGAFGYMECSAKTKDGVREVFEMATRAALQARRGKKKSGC

In the case of anillin (from UniProt Q9NQW6), the Kd is listed as 7 µM.
